# Results published in the nanobody polyreactivity screen of Harvey et al. (2022).
# Experiment: yeast display, Sf9 membrane polyspecificity reagent, FACS + sequencing; frameworks hold sequencing errors
# Procedure, shortened: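 A nanobody's polyreactivity label depends on the gate it was sorted from. Yeast display cells were stained with 10% biotinylated, detergent-solubilized Sf9 membrane reagent for 1 hour at 4 °C, enriched on streptavidin microbeads and sorted by FACS. The low and high (top ~1%) gates were set on anti-HA fluorescence for expression and streptavidin fluorescence for reagent binding.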
row,Sequence,polyreactivity (PSR sort gate)
1,QVQLVESGGGLVQAGGSLRLSCAAYGPTFRYNTMGWNRQAPGKERELDARITWSGGSTYYADSVKGRFTISRDNAKNTVYLQMNSLKPEDTAVYYCAAVPILVYRWFQSYTGDYDYWGQGTHVTVSS,low polyreactivity
2,QVQLVESGGGLVQAGGSLRLSCAASGRIFDIYAMGWYRQAPGKERELVAGITSVGSTNYADSVKGRFTISRDNAKNTVYLQMNSLKPEDTAVYYCAADTSVHSEVDYWGQGTQVTVSS,low polyreactivity
3,QVQLVESGGGLVQAGGSLRISCADSGSIFHPNAMGWYRQAPGKERELVAAISIGGDTYYADSVKGRFTISRDNAKNTVYLQMNSLKPEDTAVYYCAVTYVGHVYEYYYWGQGTQVTVSS,low polyreactivity
4,QVQLVESGGGLVQAGGSLRLSCAASGSIFIAYGMGWYRQEPGKERELVAAITVSGGNTYYADSVKGRFTISRDNAKNTVYLQMNSLKPEDTAVYYCAADYWYYYGKVLYDYWGQGTQVTVSS,low polyreactivity
5,QVQLVESGGGLVQAGGRLRLSCAASGRTFPGYDMGWYRQAPGKERELVAAITRSGGSTYYADSVKGRFTISRDNAKNTVYLQMNSLKPEDTAVYYCATERHFYYSTFYYWGQGTQVTVSS,high polyreactivity
6,QVQLQESGDGLVQAGGSLRLSCAASGNIYDADIMGWYRQAPGKERELVTSITDGGSTNYADSVKGRFTISRDNAKNTVYLQMNSLKPEDTAVYYCAAIAYPDIPTSFDYNSDYSYWGQGTQVTVSS,low polyreactivity
7,QFQLVETGGGIVHAGGSLRLSCAASGSTFWYYAMGWYRQAPGKERELVAGITQSGGSTYYADSVKGRFTISRDNAKNTVYLQMNSLKPEDSAVYYFAKDGRVSGDFVYWGQGTQVTVSS,low polyreactivity
8,QVQLVESGGGLVQAGGSLRLSCAASGFIFRAYAMGWYRQAPGKERELVAAISYSGGSTYYADSVKGRFTISRDNAKNTVYLQMNSLKPEDTAVYYCAALTIRVGSLGRDYWGQGTQVTVSS,low polyreactivity
9,QVQLVESGGGLVQAGGSLRLSCAASGFIFNWYAMGWYRQAPGKERELVAVITSSGGSTYYADSVKGRFTISRDNAKNTVYLQMNSLKPDDTAVYYCNKKPGPAPNKYRITARYYYWGQGTQVTVSS,high polyreactivity
10,QVQLVESGGGLVQAGGSLRLSCAASGMIFRRYAMGWYRQAPGKERELVAAITSGGSTYYADSVKGRFTISRDNAKKTVYLQMNSLKAEDTAVYSCAAVFYYATYSKKFEYWGQGTQVTVSS,high polyreactivity
11,QVQLVESGGGLVQAGGSLRLSCAASGRILYYYAMGWYRQAPGKERELVAAISWSGGSTYYADSVKGRFTISRDNAKNTVYLQMNSLKPEDTAVYYCAADWRGYRLERAYDYWGQGTQVTVSS,low polyreactivity
12,QVQLVESGGGLVQAGGSLRLSCAASGSTFGGYGMGWYRQAPGQERELVASISGGGNTNYADSVKGRFTISRDNAKNTVYLQKNSLKPEDTAVYYCNARINSWYSTYRYYYWGQGTQVTVSS,low polyreactivity
13,QVQLVESGGGLVQAGGSLRLSCAASGSIFTHNAMGWYRQAPGKERELVAAISSGGSTNYADSVKGPFTISRDNAKNTVYLQMNSLKPEDTAVYYCAKSIDGWYWRRRRYDYWGQGTQVTVSS,low polyreactivity
14,QVQLVESGGGLVQAGGSLRLSCAASGFTFIKYAMGWYRQAPGKEREFVATISWNGGNTYYADSVKGRFTISRDNAKNTVYLQMNSLKPEDTAVYYCAARVKYRTRGGTVVSYDYWGQGTQVTVSS,high polyreactivity
15,QVQLVESGGGLVQAGGSLRLSCAASGRTFGYYAMGWYRQAPGKERELVAAITGSGGSTYYADSVKGRFTISRDNAKNTVYLQMNSLKPEDTAVYYCAVESVRTRGWIRLDYWGQGTQVTVSS,high polyreactivity
16,QVQLVESGGALLQAGGSLRLSCAASGGTFYDYAMGWYRQAPGKERELVAAISASGDSTYYADSVKGRFTISRDNAMNTVYLQMNSLKPEDTAVYYCAAEFTAFDGFDYWGQGTQVTVSS,low polyreactivity
17,QVQLVESGGGLVQAGGSLRLSCAASGRIFGYYAMGWYRQAPGKERELVAAISYIGGRTYYADSVKGRFTISRDNAKNTGYLQMNSLKPEDTAVYYCDADRDGADVDYWGQGTQVTVSS,high polyreactivity
18,QVQLVESGGGLVQAGGSLRLSCAASGLIFWFYAMGWYRQAPGKERELVAAISGDGDSTYYADSVKGRFTISRDHAKNTVYLQMNSLKPEDTAVYYCAAEWDPVFATDEDDYWGQGTQVTVSS,low polyreactivity
19,QVQLVESGGGIVQAGGSLRLSCAASGSTFNYYAMGWYRQAPGKERELVAAISISGGSTYYADSVKGRFTISRDNAKNTVYLQMNSLKPEDTAVYYCAAVPYGFVGYDDYWGQGTQVTVSS,low polyreactivity
20,QVQLVESGGGLVQAGGSLRLSCAASGGIFGSYAMAWYRQAPGKERELVAAISWTGGSTYYADSVKGRFTISRDNAKNTVYLQMNSLKPEDTAVYYCNADTYRRAQLRFNSWGQGTQVTVSS,low polyreactivity
21,QVQLVESGGGLVQAGGSLRLSCVPPDLPSTLNVMGWYRQAPGKERELVAAISQRGGSTYYADSVKGRFTISRDNAKNTVYLEMNSLKPEDTAVYYCAAGPGDSGDDYWGQGTQVTVSS,low polyreactivity
22,QVQLVESGGGLVQAGGSLRLSCAASGSTFRYYAMGWYRQAPGKERELVAAITSSGGRTYYADSVKGRFTISRDNAKNTVYLQMNSLKPEDTAVYYCAAYAYYHTGDDYWGQGTQVTVSS,high polyreactivity

row,Sequence,polyreactivity (PSR sort gate)
1,QVQLVESGGGLVQAGGSLRLSCAASGFTFFSNAMGWYRQAPGKERELVAAITSSGGSTYADSVKGRFTISRDNAKNTVYLQMNSLKPEDTAVYYCAAELYDYGDLYYSEYDYWGQGTQVTVSS,low polyreactivity
2,QVQLVESGGGLVQAGGSLRLSCAASGFTFRTYAMGWYRQAPGKERELVAAISKSGGSTYYADSVKGRFTISRDNAKNTVYLQMNSLTPEDTAVYYCNAGEASWFSLHYYWGQGTQVTVSS,high polyreactivity
3,QVQLVESGGGLVQAGGSLRLSCAASGSIFGINGMGWYRQAPGKERELVAAISDSGGSTYYADSVKGRFTISRDNAKNTVYLQMNSLKPEDTAVYYCAAETYWYFAQFYDLYSYDYWGQGTQVTVSS,low polyreactivity
4,QVQLVESGGGLVQAGGSLRLSCAASGFIFLPYAMGWYRQEPGKERELVAAITRGGRTYYADSVKGRFTISRDNAKNTVSLQMNSLKPEVTAVSYFAATPYLFWGYNYWGQGTQVTVSS,low polyreactivity
5,QVHLVESGGGLVQAGGSLRLSCAASGLILSYNAMAWYRQAPGKERELDAAISYSGGSTYYADSVKGRFTITRDNAKNTVYLQMNSLITEDSAVYYCAAVWRRQGSAYLGSYGYDYWGQVTQVTVSS,high polyreactivity
6,QVQLVESGGGLVHAGGSLRLSCAASGYTFSRNAMGWYRQAPGKERELVAAITGSGGSTYYADSVKGRFTISRDNAKNTVYLQMNSLKPEDTAVYYCATEVKRGYVGFDYWGQGTQVTVSS,low polyreactivity
7,QVQLVESGGGLDQAGGSLRLSCAASGRIFKRYAMGWYRQAPGKERELVAAITRSGTRTYYADSVKGRFTISRDNAKNTVYLQMNSLKPEDTAVYYCAAALGWYSAFGYWGQGTQVTVSS,high polyreactivity
8,QDQLVESGGGLVQAGGSLRLSCAASRLTFYVYAMGWYRQAPGKERELVAAISGRGGRTYYADSVKGRFTISRDNAKNTVYLQMNSLKPEDTAVYDCAPRYPRYRYVEYGYNYWGQGTQVTVSS,high polyreactivity
9,QDQLLESGGGLVQAGGSLRLSCAASGSTFGANAMGWYRQAPGKEREFVAAISRSGLRTYYADSVKGRFTNSRDYAKNTVYIQMNSLKPEDTAVYYCSADCYWWTYTRYDYWGQGSQVTVSS,low polyreactivity
10,QVQLVESGGGLVQAGGSLRLSCAASGSTFDVYAMGWYRQAPGKERELVAALTSGGTTNYADSVKGRFTISRDNAKNTVYLQMNSLKPEDTAVSYCNARLTLRSYDYWGQGTLVTVSS,low polyreactivity
11,QVQLVESGGGLVQAGGSLRLSCAASGLTFRFYTMGWYRQAPGKERELVAAISTSGGSTYYADSVKGRFTISRDNAKNTVYLQMNSLKPEDTAVYYCNAQVWFYYFQSGYDYWGQGTQVTVSS,low polyreactivity
12,QVQLVESGGGLVQAGGSLRLSCAASGSTYPYYAMGWYRQAPGKERELVAAITSSTGRTYYADAVKGRFTISRDNAKNTVYLQMNSLKPEDSAVYYCATYSTSVAYHLYYWGQGTQVTVSS,low polyreactivity
13,QVQLVESVGGLVQAGGSLRLSCAGSGFTFLYYAMGWYRQAPGKERELVDTISKSGGSTYYADSVKGRFTISRDNAKNTDYLQMNSLKPEDTAVDYFAAVGPYRWYDYWGQGTQVTVSS,high polyreactivity
14,QVQLVESGGRLVQAGGSLRLSCAASGSTFNINAMGWYRQAPGKERELVAAISWSGDITYYADSVKGRFTISRDNAKNNVYLQMNSLKPEDTAVYYCNTDDPGNYWYAEYDYWGQGTQVTVSS,low polyreactivity
15,QVQLVESGGGLVQAGGSLRLSCAASGSIFDRNAMGWYRQAPGKERELVAAISRSSGNTYYADSVKGRFTISRDNAKNTVYLQMNSLNPEDTAVYYCNKAVSYGTYKYYYWGQGTQVTVSS,high polyreactivity
16,QVQLVESGGGLVQAGGSLRLSCAASGRIFAPYAKGRYRQAPGKERELVAAIRWRGGSTSYADSVKGRFTISRDNAKNTVYLQLNSLKPEDSAVYSCNADYGFSFYWYDYWGHGTQVTVSS,low polyreactivity
17,QVQLVESGGGLFQAGGRLRLICAASGRIFTTNAMGWYRQAPGKERELVPAISRSGGSTNYADSVKGRFTISRDNAKNTVYLQMNSLIPEDTAVYYCAAVPTCNSFRSSFYYWGQGTQVTVSS,high polyreactivity
18,QVQLVESGGGLLQAGGSLRLSCAASGSIFRRNAMGWYRQAPGKERELVAAIRRGGSTNYADSVKGRFTISRDNAKNTVYLQMNSLKPEDTAVYYCAARGGSSGFYYWGQGTQVTVSS,high polyreactivity
19,QVQLVESGGGLVQAGGSLRLSCAASGSIFLDYAMGWYRQAPGKERELVAGITISGGSTYYADSVKGRFTISRDNAKNTVYLQMNRLKPEDTAVYYCSKVAPRSSSSQEYYYWGQGTQVTVSS,low polyreactivity
20,QVQLVESGGGLVQAGGSLRLSCAASGSTFIRNAMGWYRQAPGKERELVAAISSSGGRTYYADSVKGRFTISRDNAKNTVYLQMNSLKPEDTAVYYCAARNARYVHTMEYWGQGTQVTVSS,high polyreactivity
21,QVQLVESGGGLVQAGGSLRLSCAASGFIFESNAMGWYRQAPGKERELVAAISKRGGSTYYADSVKGRFTISRDNAKNTVYLQMNSLKPEDTAVYYCNKARGYYHPGYQYGLDYWGQGTQVTVSS,high polyreactivity
